This data set in a line: protein stability index of a GFP-peptide fusion (GPS, HEK-293T) (PSI 1-6); higher = more stable. As to conditions: c terminus: a fixed tail appended.

This is an account of results in the supplement of paper PMC10567573.

± gives the standard deviation.
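Further: 24-mer peptide tiles fused after GFP, lentivirally expressed, FACS-sorted into six equal bins by GFP/DsRed ratio, decoded by Illumina sequencing, PSI is the read-weighted mean bin number.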

As to QRKKWVDLAWMITFYVRFFLTYVP [FADS1], the protein stability index was determined as 2.79 ± 0.29 (treatment: DMSO) and 2.83 ± 0.44 (treatment: MLN4924 1 uM, 8 h).
Turning to QRLLFSGASDNSIIMWDIGGRKGR [WDFY1], the protein stability index (treatment: DMSO) was 3.16 ± 0.55 and the protein stability index (treatment: MLN4924 1 uM, 8 h) is 3.39 ± 0.46.
As to QSLLQPKSSSVDSELTSLCQSVLE [SMG5], the protein stability index was found to be 3.88 ± 0.26 (treatment: DMSO) and 3.94 ± 0.21 (treatment: MLN4924 1 uM, 8 h).
The matching figures for QSPTLEFLLRNSQRTVGQLMELCR [EDARADD]: 2.49 ± 0.21 and 2.56 ± 0.26.
The matching figures for QTEKLDTNITEVDAASVYTLPAGA [CASP6]: 5.02 ± 0.2 and 4.81 ± 0.12.
Consider QTEPQDRSPAPMSCDKSTQTPSPP [BCL2L11], for which the protein stability index by setting is: (treatment: DMSO) 5.58 ± 0.14; (treatment: MLN4924 1 uM, 8 h) 5.38 ± 0.23.
As to QTPEQYYFCYKAILEFAEKEGMVS [PTPN9], the protein stability index (treatment: DMSO) was 2.12 ± 0.47 and the protein stability index (treatment: MLN4924 1 uM, 8 h) was determined as 2.22 ± 0.35.
The matching figures for QTRMAVSLTAAETLALQGTQGQEK [ZNF232]: 5.15 ± 0.24 and 4.98 ± 0.21.
With QVADINDNPPTFSQVSYFTYIPEN [PCDHGA10], the protein stability index (treatment: DMSO) was determined as 2.98 ± 0.32 and the protein stability index (treatment: MLN4924 1 uM, 8 h) amounted to 3.09 ± 0.3.
On the same counts, the results for QVKFGQQNPRQVAQSEAEKKLKKD [ZC3H15] are 5.37 ± 0.25 and 5.37 ± 0.076.
On the same counts, the results for QVMVSGPNLNETSIVSGGYGGSGD [ARFIP2] are 4.24 ± 0.29 and 4.41 ± 0.41.
The matching figures for QVQSLITNVESQLAEIRCDLERQN [KRT34]: 3.43 ± 0.21 and 3.66 ± 0.33.
As to RAARDYKIQNHGHRVLQRLEQRRQ [FCHSD1], the protein stability index is, setting by setting: (treatment: DMSO) 3.82 ± 0.079; (treatment: MLN4924 1 uM, 8 h) 4.07 ± 0.26.
On the same counts, the results for RAEQDSEVGPQEINKEELEGNSMR [GMCL1] are 5.6 ± 0.26 and 5.63 ± 0.14.
As to RAQMIRNEYRKLHPVLHKEEKQHL [TRIM43], the protein stability index by setting is: (treatment: DMSO) 3 ± 0.37; (treatment: MLN4924 1 uM, 8 h) 3.73 ± 0.2.
The matching figures for RDVALQIHFTLIQAFCCENDINIL [GADD45A]: 2.92 ± 0.52 and 2.94 ± 0.59.
The matching figures for REEERPLPRRDFQRQVWLLFEYPE [KCNA3]: 2.64 ± 0.43 and 2.67 ± 0.37.
Turning to RELEEYRREVERKQKGSEENLDEA [ADD1], the protein stability index runs as follows: (treatment: DMSO) 5.57 ± 0.24; (treatment: MLN4924 1 uM, 8 h) 5.61 ± 0.17.
On the same counts, the results for REPPQAVSIKEAAGSSNLPAPERT [VENTX] are 5.26 ± 0.3 and 5.2 ± 0.54.
On the same counts, the results for REPVTKAEMLGSVVGNWQYFFPVI [MAGEA3] are 2.17 ± 0.18 and 2.25 ± 0.27.
On the same counts, the results for RETYPRTPYVRWNYVAKNFAQALG [SOAT2] are 2.34 ± 0.34 and 2.17 ± 0.38.
Turning to RFNRIGLPPKVGSFQLFVEGYKDA [PI4K2A], the protein stability index runs as follows: (treatment: DMSO) 2.39 ± 0.29; (treatment: MLN4924 1 uM, 8 h) 2.77 ± 0.51.
RFSSGGACGLGGGYGGGFSSSSSF [KRT16]: the protein stability index runs as follows: (treatment: DMSO) 2.38 ± 0.64; (treatment: MLN4924 1 uM, 8 h) 2.1 ± 0.35.
On the same counts, the results for RFVPSNPIGILTTSYCELLQNKVP [PPTC7] are 2.57 ± 0.29 and 2.51 ± 0.18.
Take RGFQEENKALWENNKLKLQQKLVI [CBY2]: the protein stability index runs as follows: (treatment: DMSO) 3 ± 0.29; (treatment: MLN4924 1 uM, 8 h) 3.15 ± 0.43.
The matching figures for RGNHESRQITQVYGFYDECLRKYG [PPP2CA]: 2.75 ± 0.4 and 2.59 ± 0.19.
Consider RGNPELARLRPGLAVLGADERIFS [HAGHL], for which the protein stability index is, setting by setting: (treatment: DMSO) 3.42 ± 0.47; (treatment: MLN4924 1 uM, 8 h) 3.65 ± 0.14.
Turning to RGRYRQYNSEILEEAISVVMSGKM [LCOR], the protein stability index reads like this: (treatment: DMSO) 2.54 ± 0.23; (treatment: MLN4924 1 uM, 8 h) 2.71 ± 0.29.
As to RHLDFHVKDLIKKLLVVDRTRRLG [PRKX], the protein stability index amounted to 2.57 ± 0.042 (treatment: DMSO) and 2.41 ± 0.36 (treatment: MLN4924 1 uM, 8 h).
On the same counts, the results for RIFAQYMVPHNLETTERMKCLYYL [PDS5B] are 2.91 ± 0.62 and 2.36 ± 0.43.
Regarding RIPGAWSCAWSLNIQANNCFSTGL [DCAF4], the protein stability index runs as follows: (treatment: DMSO) 2.76 ± 0.94; (treatment: MLN4924 1 uM, 8 h) 2.69 ± 0.6.
The matching figures for RIPTCHDKPGTTQIVQLTQQVDTN [DENND6A]: 4.6 ± 0.14 and 4.59 ± 0.14.
On the same counts, the results for RKHIIEGLKASLERLQLEYVDVVF [KCNAB2] are 2.94 ± 0.58 and 3 ± 0.53.
Regarding RKKDKTWMHTPEALSKHFIPYNAK [GULP1], the protein stability index by setting is: (treatment: DMSO) 2.82 ± 0.25; (treatment: MLN4924 1 uM, 8 h) 2.99 ± 0.47.
On the same counts, the results for RKMSLLKFLAKVNGSDPRSFPLWY [MAGEA10] are 2.38 ± 0.63 and 2.01 ± 0.22.
For RKSMLDAGPDSWGSDAEQSTSGQP [LCOR], the protein stability index worked out at 5.21 ± 0.091 (treatment: DMSO) and 5.15 ± 0.24 (treatment: MLN4924 1 uM, 8 h).
